{"source": "paper PMC10399903", "experiment_in_all_cases": "phage adsorption assay; 10^6 pfu of χ phage added to 10 ml LB cultures of motile cells at OD600 2.0, shaken ten minutes at 37°C; cells pelleted at 15,000 x g and phage left in the supernatant titered by plaque assay; adsorption = (1 - pfu supernatant with cells/pfu control without cells) * 100%", "key": {"[1]": {"target": "ser. Enteritidis FliC with both D2 domains and D3 replaced by their ser. Typhimurium equivalents (strain FliC11) (Salmonella enterica serotype Enteritidis P125109 | Salmonella enterica serotype Typhimurium 14028s) (UniProt Q06972)"}, "[2]": {"target": "ser. Typhimurium FliC with D3 replaced by D3 from ser. Enteritidis FliC (strain FliC6) (Salmonella enterica serotype Typhimurium 14028s | Salmonella enterica serotype Enteritidis P125109) (UniProt P06179)"}, "[3]": {"target": "ser. Typhimurium FliC with a deletion of D3 (strain FliC3) (Salmonella enterica serotype Typhimurium 14028s) (UniProt P06179)"}, "[4]": {"target": "wild type ser. Typhimurium FliC (strain FliC1) (Salmonella enterica serotype Typhimurium 14028s) (UniProt P06179)"}}, "data": [{"substance": "Bacteriophage χ (Chi)", "values": [{"measurement": "percentage of phage particles adsorbed after ten minutes", "setting": "[1]", "result": 48, "unit": "%"}, {"measurement": "percentage of phage particles adsorbed after ten minutes", "setting": "[2]", "result": 67, "unit": "%"}, {"measurement": "percentage of phage particles adsorbed after ten minutes", "setting": "[3]", "result": 95, "unit": "%"}, {"measurement": "percentage of phage particles adsorbed after ten minutes", "setting": "[4]", "result": 99, "unit": "%"}]}]}
